# Laboratory results as given in IntAct's records for PubMed 36931259.
# B1: 14-3-3 protein sigma (Homo sapiens), P31947 (parent)
# chain: MERASLIQKAKLAEQAERYEDMAAFMKGAVEKGEELSCEERNLLSVAYKNVVGGQRAAWRVLSSIEQKSNEEGSEEKGPEVREYREKVETELQGVCDTVLGLLDSHLIKEAGDAESRVFYLKMKGDYYRYLAEVATGDDKKRIIDSARSAYQEAMDISKKEMPPTNPIRLGLALNFSVFHYEIANSPEEAISLAKTTFDEAMADLHTLSEDSYKDSTLIMQLLRDNLTLWTADNAGEEGGEAPQEPQS
# partner: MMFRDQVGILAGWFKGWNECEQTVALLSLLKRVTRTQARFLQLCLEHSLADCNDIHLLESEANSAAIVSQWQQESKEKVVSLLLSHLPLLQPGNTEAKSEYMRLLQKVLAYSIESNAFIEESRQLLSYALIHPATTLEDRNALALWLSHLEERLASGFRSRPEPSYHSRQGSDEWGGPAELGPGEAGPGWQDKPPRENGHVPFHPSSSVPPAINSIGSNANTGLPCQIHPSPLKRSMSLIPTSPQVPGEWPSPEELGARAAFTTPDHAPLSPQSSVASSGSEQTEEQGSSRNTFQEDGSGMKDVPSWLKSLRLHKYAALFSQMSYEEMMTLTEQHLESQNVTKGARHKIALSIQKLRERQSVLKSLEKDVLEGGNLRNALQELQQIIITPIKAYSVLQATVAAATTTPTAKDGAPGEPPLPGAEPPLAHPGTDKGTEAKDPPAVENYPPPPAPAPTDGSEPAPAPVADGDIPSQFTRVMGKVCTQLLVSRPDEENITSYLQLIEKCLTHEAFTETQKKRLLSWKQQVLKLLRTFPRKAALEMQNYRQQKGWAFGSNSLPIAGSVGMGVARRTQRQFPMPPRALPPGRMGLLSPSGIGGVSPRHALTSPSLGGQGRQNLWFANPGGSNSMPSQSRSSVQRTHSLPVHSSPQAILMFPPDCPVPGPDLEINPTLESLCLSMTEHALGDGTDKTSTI
# B2: 14-3-3 protein sigma (Homo sapiens), P31947 (parent)
# chain: B1 chain
# partner: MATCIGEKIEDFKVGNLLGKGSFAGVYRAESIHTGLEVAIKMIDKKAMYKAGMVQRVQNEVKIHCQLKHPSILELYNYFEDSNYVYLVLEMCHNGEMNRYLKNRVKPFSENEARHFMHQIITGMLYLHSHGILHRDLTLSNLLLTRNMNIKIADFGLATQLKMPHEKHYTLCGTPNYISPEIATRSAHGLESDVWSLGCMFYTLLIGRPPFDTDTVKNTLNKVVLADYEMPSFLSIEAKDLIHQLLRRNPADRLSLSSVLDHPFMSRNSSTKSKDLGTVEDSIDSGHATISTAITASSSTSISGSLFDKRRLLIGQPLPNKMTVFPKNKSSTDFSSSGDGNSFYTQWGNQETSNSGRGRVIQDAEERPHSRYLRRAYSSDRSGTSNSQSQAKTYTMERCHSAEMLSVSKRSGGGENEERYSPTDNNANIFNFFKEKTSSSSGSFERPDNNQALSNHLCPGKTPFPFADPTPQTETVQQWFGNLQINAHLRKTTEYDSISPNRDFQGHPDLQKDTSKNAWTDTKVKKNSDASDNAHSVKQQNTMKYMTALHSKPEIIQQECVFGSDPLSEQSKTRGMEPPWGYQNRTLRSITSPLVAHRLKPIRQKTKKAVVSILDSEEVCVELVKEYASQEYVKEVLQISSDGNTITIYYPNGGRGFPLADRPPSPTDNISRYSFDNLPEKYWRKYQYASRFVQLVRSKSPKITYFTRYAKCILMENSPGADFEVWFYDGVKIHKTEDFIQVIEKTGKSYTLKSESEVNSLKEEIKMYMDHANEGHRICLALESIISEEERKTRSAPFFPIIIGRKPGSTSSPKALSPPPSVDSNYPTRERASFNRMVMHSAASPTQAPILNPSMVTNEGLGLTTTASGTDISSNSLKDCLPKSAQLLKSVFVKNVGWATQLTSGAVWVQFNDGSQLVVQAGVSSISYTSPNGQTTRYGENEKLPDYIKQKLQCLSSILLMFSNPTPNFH
# B3: 14-3-3 protein sigma (Homo sapiens), P31947 (parent)
# chain: B1 chain
# partner: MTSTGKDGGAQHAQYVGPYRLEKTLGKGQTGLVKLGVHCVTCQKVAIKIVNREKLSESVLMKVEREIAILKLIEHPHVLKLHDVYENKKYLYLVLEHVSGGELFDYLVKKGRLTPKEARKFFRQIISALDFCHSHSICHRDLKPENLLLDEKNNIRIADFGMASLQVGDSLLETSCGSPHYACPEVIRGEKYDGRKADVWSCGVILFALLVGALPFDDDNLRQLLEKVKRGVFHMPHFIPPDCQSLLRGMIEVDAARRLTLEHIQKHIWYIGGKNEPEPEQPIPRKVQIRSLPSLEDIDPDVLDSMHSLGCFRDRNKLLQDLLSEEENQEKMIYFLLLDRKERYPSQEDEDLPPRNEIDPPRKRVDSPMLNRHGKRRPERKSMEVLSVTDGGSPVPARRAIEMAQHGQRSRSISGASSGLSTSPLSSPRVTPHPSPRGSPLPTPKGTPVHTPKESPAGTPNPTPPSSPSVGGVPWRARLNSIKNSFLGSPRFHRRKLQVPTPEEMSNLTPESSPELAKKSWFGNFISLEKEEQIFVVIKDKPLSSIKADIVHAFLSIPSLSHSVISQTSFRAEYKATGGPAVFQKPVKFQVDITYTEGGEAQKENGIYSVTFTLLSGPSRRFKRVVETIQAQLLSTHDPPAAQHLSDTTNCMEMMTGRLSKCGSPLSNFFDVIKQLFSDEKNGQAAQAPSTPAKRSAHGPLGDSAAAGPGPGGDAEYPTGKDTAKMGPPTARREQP
# B4: 14-3-3 protein sigma (Homo sapiens), P31947 (parent)
# chain: B1 chain
# partner: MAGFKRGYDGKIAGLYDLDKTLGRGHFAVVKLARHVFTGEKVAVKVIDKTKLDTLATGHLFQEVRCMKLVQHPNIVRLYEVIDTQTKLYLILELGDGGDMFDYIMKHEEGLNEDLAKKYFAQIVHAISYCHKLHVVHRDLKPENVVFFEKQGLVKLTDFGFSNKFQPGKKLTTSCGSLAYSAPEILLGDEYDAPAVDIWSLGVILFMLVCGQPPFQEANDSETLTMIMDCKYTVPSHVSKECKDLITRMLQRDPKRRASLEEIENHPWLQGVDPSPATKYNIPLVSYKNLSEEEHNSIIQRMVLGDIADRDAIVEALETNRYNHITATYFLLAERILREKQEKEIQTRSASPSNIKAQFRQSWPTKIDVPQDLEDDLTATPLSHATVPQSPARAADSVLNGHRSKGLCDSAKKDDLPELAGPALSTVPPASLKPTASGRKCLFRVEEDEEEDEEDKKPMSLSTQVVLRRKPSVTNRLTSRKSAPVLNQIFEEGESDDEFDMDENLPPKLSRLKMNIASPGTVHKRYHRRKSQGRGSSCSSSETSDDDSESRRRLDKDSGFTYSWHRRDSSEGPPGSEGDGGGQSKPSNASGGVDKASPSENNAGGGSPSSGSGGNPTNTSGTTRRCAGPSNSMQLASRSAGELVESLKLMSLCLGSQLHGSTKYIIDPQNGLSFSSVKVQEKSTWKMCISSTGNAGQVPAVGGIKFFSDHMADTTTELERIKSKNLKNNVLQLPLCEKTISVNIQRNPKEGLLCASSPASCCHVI
# B5: 14-3-3 protein sigma (Homo sapiens), P31947 (parent)
# chain: B1 chain
# partner: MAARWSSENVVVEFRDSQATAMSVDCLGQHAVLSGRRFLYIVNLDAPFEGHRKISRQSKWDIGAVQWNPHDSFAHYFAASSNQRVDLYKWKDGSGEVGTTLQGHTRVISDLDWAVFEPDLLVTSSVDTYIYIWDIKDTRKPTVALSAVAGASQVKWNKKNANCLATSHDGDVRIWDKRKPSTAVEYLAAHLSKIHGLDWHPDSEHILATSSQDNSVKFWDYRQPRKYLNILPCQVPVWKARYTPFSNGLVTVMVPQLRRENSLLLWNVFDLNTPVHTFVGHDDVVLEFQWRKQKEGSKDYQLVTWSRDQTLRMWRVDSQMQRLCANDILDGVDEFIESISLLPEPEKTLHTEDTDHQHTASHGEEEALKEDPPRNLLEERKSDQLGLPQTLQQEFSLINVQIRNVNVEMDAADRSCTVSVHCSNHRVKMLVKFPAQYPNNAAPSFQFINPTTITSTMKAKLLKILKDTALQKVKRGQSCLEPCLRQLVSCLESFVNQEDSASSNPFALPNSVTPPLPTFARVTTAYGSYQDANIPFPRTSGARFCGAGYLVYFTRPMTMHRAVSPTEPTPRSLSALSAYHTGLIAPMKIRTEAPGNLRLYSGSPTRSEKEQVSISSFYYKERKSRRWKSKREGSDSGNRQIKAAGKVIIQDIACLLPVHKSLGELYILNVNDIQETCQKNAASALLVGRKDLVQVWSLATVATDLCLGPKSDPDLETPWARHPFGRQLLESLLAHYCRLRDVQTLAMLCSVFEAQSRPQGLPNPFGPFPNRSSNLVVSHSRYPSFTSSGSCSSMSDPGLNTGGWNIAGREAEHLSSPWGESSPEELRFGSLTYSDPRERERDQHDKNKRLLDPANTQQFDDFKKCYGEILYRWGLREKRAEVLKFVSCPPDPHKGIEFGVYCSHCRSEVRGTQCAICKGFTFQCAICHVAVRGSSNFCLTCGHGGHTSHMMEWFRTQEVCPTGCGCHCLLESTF
# B6: 14-3-3 protein sigma (Homo sapiens), P31947 (parent)
# chain: B1 chain
# Variants of: B1
# Details: with smag2_human SAMD4B
row,effect of a mutation on the interaction,Variant
1,decreasing interaction strength,K49E;R56E;V178D

# Variants of: B2
# Details: with plk4_human PLK4, O00444
row,effect of a mutation on the interaction,Variant
1,decreasing interaction strength,K49E;R56E;V178D

# Variants of: B3
# Details: with brsk2_human BRSK2, Q8IWQ3
row,effect of a mutation on the interaction,Variant
1,decreasing interaction strength,K49E;R56E;V178D

# Variants of: B4
# Details: with snrk_human SNRK
row,effect of a mutation on the interaction,Variant
1,decreasing interaction strength,K49E;R56E;V178D

# Variants of: B5
# Details: with wdr59_human WDR59, Q6PJI9
row,effect of a mutation on the interaction,Variant
1,decreasing interaction strength,K49E;R56E;V178D

# Variants of: B6
# Details: with gsk3a_human GSK3A
row,effect of a mutation on the interaction,Variant
1,decreasing interaction strength,K49D;R56D;V178D
